{
  "source": "the nanobody polyreactivity screen of Harvey et al. (2022)",
  "data": [
    {"assay": "yeast display, Sf9 membrane polyspecificity reagent, FACS + sequencing; frameworks hold sequencing errors", "how_it_was_run": "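Nanobodies came from a synthetic yeast display library in Saccharomyces cerevisiae BJ5465, induced with galactose for 36–48 hours and stained for 1 hour at 4 °C with 10% biotinylated, detergent-solubilized Sf9 membrane reagent. Cells were enriched on streptavidin microbeads and then FACS-sorted, with low and high (top ~1%) gates set on anti-HA fluorescence for expression and streptavidin fluorescence for reagent binding. Each polyreactivity label reflects the gate a clone came from. Genes were amplified by colony PCR, sequenced by MiSeq 2 × 250 and filtered by CDR length.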", "values": [
      {"sequence": "QVHLQESGGVQAGGSLPQSCAASGNISRSDVMGWYRQAPPKERELVATINNGTITYYADSVKGRFTISRDHAKNTVYLHMNSLKQEDTAVQYCAVVQSDTDSLYYWGQGTQVTVSS", "polyreactivity (PSR sort gate)": "low polyreactivity"},
      {"sequence": "QDQLVESGGGLVQAGGSLRLSCAASGRLFATYAMGWNRQAPGKERELVAAISDSGGRTYYADSVTGRFTSSRDNAKNTVYLQMNSLKPEDTAVYYCAAKNGDRYARGYWGQGTQVTVSS", "polyreactivity (PSR sort gate)": "high polyreactivity"},
      {"sequence": "QVQLVESGGGLVQAGGSLRLSCAASGSIFVSYAMGWYRQAPGKERELVAAITSIGTRTNYADSVKGRFTISRDNAKNTVYLPMNSLKPEDTAVYYCNAPRFWSRHGLRDYWGQGTQVTVSS", "polyreactivity (PSR sort gate)": "high polyreactivity"},
      {"sequence": "QVQLVESGGCLFQAGGSLRLSCAASGFNFPYYAMGWYRQAPGKERELVAAINRGGSTYYADSEKGRFTISRDNAKNTVYLQMNSLKPEDTAVFYCAAGYPSWYYGYPYDSWGQGTQVNVSS", "polyreactivity (PSR sort gate)": "low polyreactivity"},
      {"sequence": "QVQLVESGGGLVQAGGSLRLSCAASGSIFYYYAMGWYRQAPGKERELVAAITVSGGSTYYADSVKGRFTISRDNAKNTVYLQMNSLKPEDTAVYYCAAVSLFRDSQFDYWGQGTQVTVSS", "polyreactivity (PSR sort gate)": "low polyreactivity"},
      {"sequence": "QVQLVESGGGLVQAGGSLRLSCAASGRIFGVYAMGWYRQAPGKERELVAAISFSGGRTYYADSVKGRFTISRDNAKNTVYLQMNSLKPEDTAVYYCAVRGYYSFLYSTAYDYWGQGTQVTVSS", "polyreactivity (PSR sort gate)": "low polyreactivity"},
      {"sequence": "QVQLVESGGGLVQAGGSLRLSCAASGRMGWYRQAPGKERELVAAITSGDRTNYADSVKGRFTISRDNAKNTVYLQMNSLKREDTAVYYCATEPSWYHGFIDPRGYWGQGTQVTVSS", "polyreactivity (PSR sort gate)": "low polyreactivity"},
      {"sequence": "QVQLEESGGGLDQAGGSLRLSCAASAIIFALYARGWYSQARGKHRELVATITYSGGSTNYADSLKGRYTISRDNAKNPVYLLMHSLKPEDTAVYYCAAASVPWGGYYSGQGTQVTVSS", "polyreactivity (PSR sort gate)": "low polyreactivity"},
      {"sequence": "QVQLVESGAGLVQAGGSLRLSCAASGYIFLRYAMGWSRQAPGKERELVAAIRGGSTNYADSVKGRFTISRDNAKNTVYLQMNSLKPEDTAVYYCAARGSKKQAYGYWGQGTQVTVSS", "polyreactivity (PSR sort gate)": "high polyreactivity"},
      {"sequence": "QVQLVESGGGLVQAGGSLRLSSAASGRTFAWYAMGWYRQAPGKERELVAAISSGGSTYYADSVKGRFTISRDNAKNTVYLQMDSLKPEDTAVYYCAAEWHYIYAYDYWGQGTQVTVSS", "polyreactivity (PSR sort gate)": "low polyreactivity"},
      {"sequence": "QVQLVESGGGLVQAGGSLRLTCAASGSTFTVNGMGWYRQAPGKERELVASITWSGGSTYYADSVKGRFTISRDNAKITVYLQMNSLKPEDTAVYYCAADEKLYITGYDYWGQGTQVTVSS", "polyreactivity (PSR sort gate)": "low polyreactivity"},
      {"sequence": "QVQLVESGGGLVQAGGSLRLSCAASGRTSLGYDMGWYRQAPGKERELVAAITRGGSTYYADSVKGRFTISRDNAKNTVYLQMNSLKPEDTAVYYCAARPWTSASYDYWGQGTQVTVSS", "polyreactivity (PSR sort gate)": "low polyreactivity"},
      {"sequence": "QVQLVESGGGLVQAGGSLRLSCAASGGTFGSNTMGWYRQAPGKERELVAAITSGVSTNYADSVKGRFTISRDNAKNTVYLQMNSLKPEDTAVYYCAKDLWSEEYETIITSYGFDYWGQGTQVTVSS", "polyreactivity (PSR sort gate)": "low polyreactivity"},
      {"sequence": "QVQLVESGGGLVQAGGSLRLSCASSGGTFVTNAMGWYRQAPAKERELVAAISYDGGITYYADSVKGRFTISRDNAKNTVYLKMNSLKPEDTAVYYGAAYRRYRNWFNYWGQGTQVTVSS", "polyreactivity (PSR sort gate)": "high polyreactivity"},
      {"sequence": "QVQLVESGGGLVQAGGSLRLSCAASGFTFRENAMGWYRQAPGKERELVAAISKRGGTTYYADSVKGRFTISRDNAKNTVYLQMNSLKPEDTAVYYCAAESYSGPYAYEYWGQGTQVTVSS", "polyreactivity (PSR sort gate)": "high polyreactivity"},
      {"sequence": "QVQLVESGGGLVQSGGSLRLSCAASGSILKPYAMGWYRQAPGKERELVAAIRSSGGRTNYADSVKGRFTISRDNAKNSVYLQMNSLKPEDTAVYYCAAGYVSYWYYRYDYWGQGTQVTVSS", "polyreactivity (PSR sort gate)": "high polyreactivity"},
      {"sequence": "QVQLVESGGGLVQAGGSLRLSCAASGSIFFIYAMGLYRQAPGKERELVAGITSRGITNYADSVKGRFTISRDNAKNTVYLQMNSLKPEDTAVYYCAAGDENYTDRYDYWGQGTQVTVSS", "polyreactivity (PSR sort gate)": "low polyreactivity"},
      {"sequence": "QVQLVESGGGLVQAGGSLRLSCAASGSTFVSNAMGWYRQAPGKERELVAGITFSGGSTYYADSVKGRFTISRDNAKNTVYLQMNSLKPEDTAVYYCAAEFHWWYAGYDYGYWGQGTQVTASS", "polyreactivity (PSR sort gate)": "low polyreactivity"},
      {"sequence": "QVQLVESGGGLLQAGGSLRLSCAASGYTFWLYAMGWYRQAPGKDRELVATISRRAGTTYYADSVKGRFTISRDNAKNTVYLQMNSLKPEDTAVYYCAKKSHSLLGQYGEDYDYWGQGTQVTVSS", "polyreactivity (PSR sort gate)": "low polyreactivity"},
      {"sequence": "QVQLVESGGGLVQAGGSLRLICAASGIIFRWYTMGWYRQAPGKERELVAAISTSTGSTYYADSVKGRFTISRDNAKNTVYLQMNSLKPEDTAVYYCAADYAYWNYESYYWGQGTQVTVSS", "polyreactivity (PSR sort gate)": "high polyreactivity"},
      {"sequence": "QVQLVESGGGLDQAGGSLRLSCAASGITFYGYAMGWYRQAPGKEREFVAVITSTARTNYADSVKGRFTISRDNAKNTVYLQMNSLKPEDTAVYYCAARRVVRRDRYGSMDYWGQGTQVTVSS", "polyreactivity (PSR sort gate)": "high polyreactivity"},
      {"sequence": "QVQLVESGGGLVQAGGSLRLSCAASGSTIYWYTMGWYRQPPGKEMELVAAITGGTGNTYYADSVKGRFTISRDNAKNTVYLQMNSLKPEDTAVYYCAAYYRRYDYDYWGQGTQVTVSS", "polyreactivity (PSR sort gate)": "high polyreactivity"},
      {"sequence": "QVQLVESGGGLVQAGGSLRLSCAASGRIFNYNAMGWYRQAPGKERELVATITYSDATTYYADSVKGRFTISRDNAKITVYLQMNSLKPEDTAVYYCNAPSRSYDRYISAGRRYDYWGQGTQVTVSS", "polyreactivity (PSR sort gate)": "low polyreactivity"},
      {"sequence": "QVQLVESGGGLVQAGGSLRLSCAASGSTFQENAMGWYRQAPGKEREFVAAISGSGGSTYYADSVKGRFTISRDNAKNTVYLQMNSLKPEDTAVYYCAARHYFRSRRRYDYWGQGTQVTVSS", "polyreactivity (PSR sort gate)": "low polyreactivity"},
      {"sequence": "QVQLVESGGGLVQAGGSLRLSCAASGFIFDQYAMGWYRQAPGKERELVATITSDGDTYYADSVKGRFTISRDNAKNTVYLQMNSLKPDDTAFYYFAVDPGPYTTGYEYWGQGTQLTVSS", "polyreactivity (PSR sort gate)": "low polyreactivity"},
      {"sequence": "QFQLVESGGGLVQAGGSLRLSCAASGSIFHPYTMGWYRPAPGKERELVAAISWSGGNTNYADSVKGRFTISRDNAKNTVYLQMNSLKPEDTAVYYCNKATNLSGGYDSWGQGTQVTVSS", "polyreactivity (PSR sort gate)": "low polyreactivity"},
      {"sequence": "QVQLVESGGGLVQAGGSLRLSCAASGLIFIIYTMGWYRQAPGKERELVAAITRRGGITYYADSVKGRFTISRDYAKNTVYLQMNSLKPEDTAVYYCAVVRPYNIWYDYWGQGTQVTVSS", "polyreactivity (PSR sort gate)": "low polyreactivity"},
      {"sequence": "QVQLVESGGGLVQAGGSLRLSCAASGITFYRYAMGWSRQAPGKERELVAAIRRAGSTYYADSVKGRFTISRDIAKNSVYLQMNSLKPEDTAVYYCNARYGIGMNYWGQGTHVTVSS", "polyreactivity (PSR sort gate)": "high polyreactivity"},
      {"sequence": "QVQLVESSGGLVQAGCSLRLSCAASGFTFGYYAMGWYRQAPGKERELVAAISRSGGRTYYADSVKGRFTISRDKAKNTVYLQMNSLNPEDTAVYYCAAWYVPGYLVDSDYWGQGTQVTVSS", "polyreactivity (PSR sort gate)": "high polyreactivity"},
      {"sequence": "QVQLVESGGGLVQAGGSLRLSCAASGITFTFNAMGWYRQAPGKERELVAAITWSGGSTFYADSVKGRFTFSRDNAKNTVYLQMNSLKPEDTAVYYCARDTELYVRWLDYWVQGTQVTVSS", "polyreactivity (PSR sort gate)": "low polyreactivity"},
      {"sequence": "QVQLVESGGGLVQARGSLRLSCAASGFTFAFYAMGWYRQAPGKEMELVAAITGSGGSTYDADSVKGRFTISRDNAKNTVYLQLNSLKPEDTAVYYCFTRGGYYLYYSYYYWGQGTQVTVSS", "polyreactivity (PSR sort gate)": "high polyreactivity"},
      {"sequence": "QVQLVESGGGLVQAGGSLRLSCAASGGTFPTNAMGWYRQATGKERELVAAITSSGVRTYYADSVKGRFTISRDNAKNTVYLQLNSLKPEDTAVYYCKAVTRYVRLTDDDYWGQGTQVTVSS", "polyreactivity (PSR sort gate)": "high polyreactivity"},
      {"sequence": "QVQLVDSGGGLVQAGGRLRLSCAASGRTFSKYAMGWYRQAPGKERELVASITRSGGSTNYADTVKGRFTISRDNAKNTVYLQKNSLKPEDTAVYYCRRKLGRTHDTGFDYWGQGTQVTVSS", "polyreactivity (PSR sort gate)": "low polyreactivity"},
      {"sequence": "QVQLVESGGGLVQAGGSLRLSCAASGGTFRVYAMGWYRQAPGKERELVAAITGRGGSTYYADSVKGRFTISLDNAKNTVDLQMNSLKPEDTAVYYCAKDPVTTYYKYDYWGQGTQVTVSS", "polyreactivity (PSR sort gate)": "low polyreactivity"},
      {"sequence": "QVQLVESGGGLVQAGGSLRLSCAASGRTFYFYPMGWYRQAPGKERELVAAIRSSGGSTNYADSVKGRFTISRDNAKNTVYLQMNSLKPEDTAVYYFAAKRRAKGNYAFYYWGQGTQVTVSS", "polyreactivity (PSR sort gate)": "high polyreactivity"},
      {"sequence": "QVQLVEAGGGLVQAGGSLRLSCAASGFIFYGYMGWYIQAHGKERELVAAISYTGGSTYYADSVKGRFTISRDNAKNTVYLQMISLKPEDTAVYYCARDWRTKWFGYWGQGTQVTVSS", "polyreactivity (PSR sort gate)": "low polyreactivity"},
      {"sequence": "QFQLVESGGGLVQAGGSLRLSCAASGFIFQEYAMGWYGQAPGKERELVAAITSGGSTNYADSVKGRFTISRDNAKNTVYLQMNSLKPEDTAVYYCNVDSPDYYYDYDYWGHGTQVTVSS", "polyreactivity (PSR sort gate)": "low polyreactivity"},
      {"sequence": "QVQLVESGGGLVQAGGSLRLSCAASGRTFYDYDMGWYRQAPGKERELVATIRRDGSTYYADSVKGRFTISRDNAKNTVYLQMNSLKPEDTAVYYCAKDGGYPLDEPEFDYWGQGTQVTVSS", "polyreactivity (PSR sort gate)": "low polyreactivity"},
      {"sequence": "QVQLVESGGGLVQAGGSLRLSCAASGSTFGVNAMGWYRQAPGKEREFVAAITSSSGSTYYADSVKGRFTISRDNAKNTVYLQMNSLKPEDTAVYYCNKRYIQLYDYWGQGTQVTVSS", "polyreactivity (PSR sort gate)": "low polyreactivity"},
      {"sequence": "QVQLVESGGGLVQAGGSLRLSCAASGRIIRDNAMGWYRQAPGKERELVAAISRRGGSTYYADSVKGRFTISRDNAKNTVYLQMNSRKPEDTAVYYCNKTTHSRTFRYDYWGQGTQVTVSS", "polyreactivity (PSR sort gate)": "low polyreactivity"},
      {"sequence": "QVQLVESGGGLVQAGGSLRLSCAASGSIFDPNAMGWYRQAPGKERELLADIDSSDGSTYYADSVKGRFTISRDNAKNTVYLQMNSLKPEDTAVYYCNARYGGWVWSTYDHWGQGTQVTVSS", "polyreactivity (PSR sort gate)": "low polyreactivity"},
      {"sequence": "QVQLVESGGGLVQAGGSLRISCAASGITFLEYAMGWYRQAPGKERELVATINSGGSTNYADSVKGRFTISRDNAKNTVYLQMNSLKQEDNAVYYCSADYGSDYTKGDYWGQGTQVTVSS", "polyreactivity (PSR sort gate)": "low polyreactivity"},
      {"sequence": "QVQLVESGGGLVQAGGSLRLSCAASGFTFRYYTMGWYRQAPGKERELVAAITSSGGNTYYADSVKGRFTISRDNAKYTVYLQMNSLKPEDTAVYYCAADGRYYAVFRYDYWGQGTQVTVSS", "polyreactivity (PSR sort gate)": "low polyreactivity"}
    ]}
  ]
}
